{
  "source": "patent US20170037124A1",
  "about": "(Regeneron, published 2017)",
  "binders": {"B1": {"name": "H4H15318P (antibody, human IgG4, V domains shown)", "VH": "QVQLVESGGGVVQPGRSLRLSCTASGFTFGNFGIHWVRQAPGKGLEWVAVISYDGTDKFYADPVKGRFIISRDNSMNILYLQMNSLRAEDTAVYYCAKDGEMELRGYYYYYGMDVWGQGTTVTVSS", "VL": "DIQMTQSPSSVSASVGDRVTITCRASQGINTWLAWYQQKPGTAPKLLIFAASSLESGVPSRFSGSGFGTDFTLTISSLQSEDLATYFCQQVHSPPYTFGQGTKLEIK", "notes": "H4H prefix: human IgG4 Fc"}, "B2": {"name": "H4H15314P2 (antibody, human IgG4, V domains shown)", "VH": "QVQLVQSGAEVKKPGASVKVSCKASGYTFTSYDINWVRQATGQGLEWMGWMNPNGDNTGYAQKFQGRVTMTGDTSISTAYMELSSLRSEDTAVYYCAREGIWGFDPWGQGTLVTVSS", "VL": "DIQMTQSPSSLSASVGDRVTITCRASQDIRNDLGWYQQKPGKAPKRLIYAASSLQSGVPSRFSGSGSGTEFTLTISSLQPEDFATFYCLQHNTFPRTFGQGTKVEIK", "notes": "H4H prefix: human IgG4 Fc"}, "B3": {"name": "H4H15345P (antibody, human IgG4, V domains shown)", "VH": "EVQLVESGGGLVQPGGSLRLSCAASGFTFSTYAMSWVRQAPGKGLEWVSVISGSFISTYYADSVKGRFTISRDNSKNTLYLQMTSLRAEDTAVYYCAKNSPFDYWGQGTLVTVSS", "VL": "not shown", "notes": "H4H prefix: human IgG4 Fc"}, "B4": {"name": "H4H15350P2 (antibody, human IgG4, V domains shown)", "VH": "EVQLVESGGGLVQPGGSLRLSCAASGFTFSSFRMTWVRQAPGKGLEWVANIKQDGSEKYYVDSVKGRFTISRDNAKNSLYLQMNSLRAEDTAVYYCARGGGIAAYWGQGTLVTVSS", "VL": "not shown", "notes": "H4H prefix: human IgG4 Fc"}},
  "data": [
    {"target": "T1, anti-mFc (AMC) Octet biosensor, blank", "T1 construct": "Sensor without captured protein, used as blank; also called Blank AMC Sensor", "assay": "BLI Octet, blank AMC sensor, 100 nM mAb, 25C", "method": "(§1) Binding of ANGPTL8 antibodies to human and monkey ANGPTL8 proteins was investigated using Bio-layer Interferometry with an Octet HTX biosensor platform (ForteBio, A Division of Pall Life Sciences). All experiments were performed at 25° C. in 10 mM HEPES pH 7.4, 150 mM NaCl, 0.05% v/v Surfactant Tween-20, and 1 mg/ml BSA with the reaction multiwell plate agitated at 1000 rpm. Approximately 1.6 nm of human ANGPTL8 produced with a C-terminal mouse IgG2a Fc tag (hANGPTL8-mFc; SEQ ID NO: 340) or cynomolgus monkey ANGPTL8 produced with a C-terminal mouse IgG2a Fc tag (MfANGPTL8-mFc; SEQ ID NO: 341) was captured onto anti-mFc (AMC) Octet biosensors by submerging the sensors into wells containing 10 μg/mL of each protein for 4 minutes. Under the same conditions a negative control protein with the same mFc tag (hLDLR-mFc) was also coupled to the AMC sensor. All four sensors, […] and one blank, were then submerged into wells containing 100 nM of different ANGPTL8 monoclonal antibodies or an isotype control for 4 minutes.", "units": {"mAb Binding Response (nm)": "nm"}, "values": [
      {"binder": "B1", "mAb Binding Response (nm)": 0.01},
      {"binder": "B2", "mAb Binding Response (nm)": 0},
      {"binder": "B3", "mAb Binding Response (nm)": 0.01},
      {"binder": "B4", "mAb Binding Response (nm)": -0.01}
    ]},
    {"target": "T2, human ANGPTL8 expressed with C-terminal mouse IgG2a Fc tag (hANGPTL8-mFc; SEQ ID NO: 340) (human)", "T2 construct": "also called Angiopoietin-like protein 8", "T2 chain": "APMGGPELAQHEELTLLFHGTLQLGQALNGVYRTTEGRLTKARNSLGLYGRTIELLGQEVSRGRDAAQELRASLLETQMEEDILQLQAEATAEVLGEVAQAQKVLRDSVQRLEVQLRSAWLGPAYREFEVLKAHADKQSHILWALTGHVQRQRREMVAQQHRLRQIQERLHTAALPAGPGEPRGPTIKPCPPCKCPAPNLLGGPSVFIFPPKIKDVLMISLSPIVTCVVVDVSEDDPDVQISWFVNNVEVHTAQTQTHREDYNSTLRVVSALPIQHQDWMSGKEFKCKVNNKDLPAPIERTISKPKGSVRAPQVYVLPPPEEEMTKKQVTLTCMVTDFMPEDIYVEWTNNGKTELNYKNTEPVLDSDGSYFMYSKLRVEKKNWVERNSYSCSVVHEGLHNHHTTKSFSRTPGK", "assay": "BLI Octet, captured antigen, 100 nM mAb, 25C", "method": "as §1", "units": {"mAb Binding Response (nm)": "nm"}, "values": [
      {"binder": "B1", "mAb Binding Response (nm)": 0.19},
      {"binder": "B2", "mAb Binding Response (nm)": 0.04},
      {"binder": "B3", "mAb Binding Response (nm)": 0.25},
      {"binder": "B4", "mAb Binding Response (nm)": 0.17}
    ]},
    {"target": "T3, negative control protein with the same mFc tag (hLDLR-mFc) (human; mouse, UniProt P01130 22-788, limits assumed)", "T3 construct": "also called Irrelevant control; not shown: mouse IgG2a Fc tag (same mFc tag as hANGPTL8-mFc)", "T3 sequence (P01130 22-788 limits assumed)": "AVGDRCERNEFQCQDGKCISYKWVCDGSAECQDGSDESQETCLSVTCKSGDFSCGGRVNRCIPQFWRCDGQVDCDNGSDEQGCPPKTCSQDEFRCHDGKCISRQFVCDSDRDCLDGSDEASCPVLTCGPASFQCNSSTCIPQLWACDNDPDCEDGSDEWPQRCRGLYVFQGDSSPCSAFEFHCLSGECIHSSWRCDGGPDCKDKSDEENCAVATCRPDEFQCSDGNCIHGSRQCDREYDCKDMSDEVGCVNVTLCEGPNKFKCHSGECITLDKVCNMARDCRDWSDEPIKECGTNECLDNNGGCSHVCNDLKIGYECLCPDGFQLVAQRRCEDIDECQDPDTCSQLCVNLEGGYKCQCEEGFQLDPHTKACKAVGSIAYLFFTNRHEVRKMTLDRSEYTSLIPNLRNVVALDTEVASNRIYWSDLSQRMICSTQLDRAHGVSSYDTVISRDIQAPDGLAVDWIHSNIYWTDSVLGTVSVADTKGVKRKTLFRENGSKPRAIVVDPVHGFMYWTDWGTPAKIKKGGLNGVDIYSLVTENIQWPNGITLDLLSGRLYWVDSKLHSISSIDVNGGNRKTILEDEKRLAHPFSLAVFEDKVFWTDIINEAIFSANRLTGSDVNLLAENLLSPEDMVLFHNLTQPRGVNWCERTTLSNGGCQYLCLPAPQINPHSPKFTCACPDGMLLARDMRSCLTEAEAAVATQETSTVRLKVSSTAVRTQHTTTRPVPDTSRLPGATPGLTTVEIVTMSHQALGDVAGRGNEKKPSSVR", "assay": "BLI Octet, captured antigen, 100 nM mAb, 25C", "method": "as §1", "units": {"mAb Binding Response (nm)": "nm"}, "values": [
      {"binder": "B1", "mAb Binding Response (nm)": 0.01},
      {"binder": "B3", "mAb Binding Response (nm)": 0},
      {"binder": "B4", "mAb Binding Response (nm)": 0}
    ]},
    {"target": "T4, monkey ANGPTL8 expressed with C-terminal mouse IgG2a Fc tag (MfANGPTL8-mFc; SEQ ID NO: 341) (cynomolgus monkey)", "T4 construct": "also called cynomolgus monkey ANGPTL8", "T4 chain": "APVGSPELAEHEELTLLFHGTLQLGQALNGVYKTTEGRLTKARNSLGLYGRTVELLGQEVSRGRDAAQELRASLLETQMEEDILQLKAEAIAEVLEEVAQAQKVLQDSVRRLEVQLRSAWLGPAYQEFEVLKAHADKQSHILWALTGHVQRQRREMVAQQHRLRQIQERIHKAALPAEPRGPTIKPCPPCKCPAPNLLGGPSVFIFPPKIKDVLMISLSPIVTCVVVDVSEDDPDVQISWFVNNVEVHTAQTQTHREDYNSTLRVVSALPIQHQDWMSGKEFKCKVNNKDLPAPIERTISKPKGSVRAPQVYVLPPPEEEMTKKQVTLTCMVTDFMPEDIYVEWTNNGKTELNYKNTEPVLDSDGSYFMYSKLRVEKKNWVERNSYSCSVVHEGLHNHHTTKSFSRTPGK", "assay": "BLI Octet, captured antigen, 100 nM mAb, 25C", "method": "as §1", "units": {"mAb Binding Response (nm)": "nm"}, "values": [
      {"binder": "B1", "mAb Binding Response (nm)": 0.2},
      {"binder": "B2", "mAb Binding Response (nm)": 0.01},
      {"binder": "B3", "mAb Binding Response (nm)": 0.31},
      {"binder": "B4", "mAb Binding Response (nm)": 0.2}
    ]},
    {"target": "T5, peptide from the N-terminal coiled-coil region of human ANGPTL4 (hANGPTL4 peptide, SEQ ID NO: 339) (human)", "T5 peptide": "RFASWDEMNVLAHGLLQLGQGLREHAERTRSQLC", "assay": "SPR, captured mAb, 500 nM peptide, 25C", "method": "(§2) The assay utilized a format where ANGPTL8 antibodies were captured on the sensor surface and peptides were injected over the antibody surface. Peptides from the N-terminal coiled-coil region of human ANGPTL3 (hANGPTL3 peptide, SEQ ID NO: 338) and human ANGPTL4 (hANGPTL4 peptide, SEQ ID NO: 339) were also included as controls. Also included was a control antibody (H4H268P from US2011/0159015A1) that binds to the ANGPTL4 peptide and a negative isotype control antibody. All binding studies were performed in 10 mM HEPES pH 7.4, 150 mM NaCl, 3 mM EDTA, and 0.05% v/v Surfactant Tween-20 (HBS-ET running buffer) at 25° C. The HCA sensor surface was derivatized via amine coupling to a monoclonal mouse anti-human Fc antibody (GE, # BR-1008-39), and to this surface was captured approximately 1000 RU of each ANGPTL8 antibody or control antibody. Peptide stock solutions were diluted in HBS-ET running buffer to 500 nM and injected over the antibody-captured surfaces for 4 minutes at a flow rate of 30 μL/minute followed by the dissociation of bound peptide in HBS-ET running buffer for 10 minutes.\n(§3) Dissociative half-lives (t½) were calculated from kd as: […]", "units": {"500 nM hAngPTL4 peptide Bound (RU)": "RU"}, "values": [
      {"binder": "B1", "500 nM hAngPTL4 peptide Bound (RU)": 0, "binding result": "no binding (tested: <9 RU at 500 nM peptide)"},
      {"binder": "B2", "500 nM hAngPTL4 peptide Bound (RU)": 1, "binding result": "no binding (tested: <9 RU at 500 nM peptide)"},
      {"binder": "B3", "500 nM hAngPTL4 peptide Bound (RU)": 0, "binding result": "no binding (tested: <9 RU at 500 nM peptide)"},
      {"binder": "B4", "500 nM hAngPTL4 peptide Bound (RU)": 0, "binding result": "no binding (tested: <9 RU at 500 nM peptide)"}
    ]},
    {"target": "T6, peptide from the N-terminal coiled-coil region of human ANGPTL3 (hANGPTL3 peptide, SEQ ID NO: 338) (human)", "T6 construct": "also called hANGPTL3 shift peptide", "T6 peptide": "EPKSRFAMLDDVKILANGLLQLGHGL", "assay": "SPR, captured mAb, 500 nM peptide, 25C", "method": "as §2, §3", "units": {"500 nM hANGPTL3 peptide Bound (RU)": "RU"}, "values": [
      {"binder": "B1", "500 nM hANGPTL3 peptide Bound (RU)": 0, "binding result": "no binding (tested: <9 RU at 500 nM peptide)"},
      {"binder": "B2", "500 nM hANGPTL3 peptide Bound (RU)": 0, "binding result": "no binding (tested: <9 RU at 500 nM peptide)"},
      {"binder": "B3", "500 nM hANGPTL3 peptide Bound (RU)": 0, "binding result": "no binding (tested: <9 RU at 500 nM peptide)"},
      {"binder": "B4", "500 nM hANGPTL3 peptide Bound (RU)": 0, "binding result": "no binding (tested: <9 RU at 500 nM peptide)"}
    ]},
    {"target": "T7, human ANGPTL8 peptide (hANGPTL8 peptide, SEQ ID NO: 337) (human)", "T7 construct": "also called N-terminal region ANGPTL8 peptide", "T7 peptide": "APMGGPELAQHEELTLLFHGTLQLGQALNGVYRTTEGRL", "assay": "SPR, captured mAb, 500 nM peptide, 25C", "method": "as §2, §3", "units": {"500 nM hANGPTL8 peptide Bound (RU)": "RU", "koff": "s⁻¹", "t½": "h"}, "values": [
      {"binder": "B1", "500 nM hANGPTL8 peptide Bound (RU)": 0, "binding result": "no binding (tested: <9 RU at 500 nM peptide)"},
      {"binder": "B2", "500 nM hANGPTL8 peptide Bound (RU)": 0, "binding result": "no binding (tested: <9 RU at 500 nM peptide)"},
      {"binder": "B3", "500 nM hANGPTL8 peptide Bound (RU)": 37, "koff": "2.03e-05", "t½": 9.5},
      {"binder": "B4", "500 nM hANGPTL8 peptide Bound (RU)": 0, "binding result": "no binding (tested: <9 RU at 500 nM peptide)"}
    ]}
  ]
}
